Experimental data from the supplement of paper PMC10567573.

B1: SPACA3 (parent)
chain: FTSGFNAAALDYEADGSTNNGIFQ

Variants of: B1
Experiment: protein stability index of a GFP-peptide fusion (GPS, HEK-293T) (PSI 1-6); higher = more stable
Settings: c terminus: a fixed tail appended
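Further: lentivirally expressed fusions sorted by FACS into six bins by GFP to DsRed ratio, PSI derived from sequencing read proportions per bin multiplied by bin number.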

Which protein stability index does the source give for FTSGFNAAALDYEADGSRNNGIFQ [T18R] here?
Its protein stability index is 2.02.

Which protein stability index does the source give for FTSGFNAAALDYEADGSGNNGIFQ [T18G] here?
The protein stability index was 2.31.

Which protein stability index does the source give for FTSGFNAAALDYEADGSPNNGIFQ [T18P] here?
The protein stability index was 1.83.

Which protein stability index does the source give for FTSGFNAAALDYEADGSMNNGIFQ [T18M] here?
Its protein stability index is 1.95.

Which protein stability index does the source give for FTSGFNAAALDYEADGSENNGIFQ [T18E] here?
Its protein stability index is 2.27.

With FTSGFNAAALDYEADGSKNNGIFQ [T18K] as the variant, how does the protein stability index read?
Its protein stability index is 2.78.

For FTSGFNAAALDYEADGSLNNGIFQ [T18L], which protein stability index is on record?
Its protein stability index is 2.07.

For FTSGFNAAALDYEADGSHNNGIFQ [T18H], which protein stability index is on record?
Its protein stability index is 1.83.

With FTSGFNAAALDYEADGSANNGIFQ [T18A] as the variant, how does the protein stability index read?
The protein stability index was 1.87.

Which protein stability index does the source give for FTSGFNAAALDYEADGSCNNGIFQ [T18C] here?
The protein stability index was 2.

With FTSGFNAAALDYEADGSFNNGIFQ [T18F] as the variant, how does the protein stability index read?
The protein stability index was 1.78.

Which protein stability index does the source give for FTSGFNAAALDYEADGSDNNGIFQ [T18D] here?
Its protein stability index is 2.06.

With FTSGFNAAALDYEADGSINNGIFQ [T18I] as the variant, how does the protein stability index read?
The protein stability index was 2.14.

For FTSGFNAAALDYEADGSNNNGIFQ [T18N], which protein stability index is on record?
Its protein stability index is 1.7.

Which protein stability index does the source give for FTSGFNAAALDYEADGSQNNGIFQ [T18Q] here?
The protein stability index was 1.82.

Which protein stability index does the source give for FTSGFNAAAGDYEADGSTNNGIFQ [L10G] here?
The protein stability index was 2.38.

For FTSGFNAAARDYEADGSTNNGIFQ [L10R], which protein stability index is on record?
The protein stability index was 1.78.

With FTSGFNAAAMDYEADGSTNNGIFQ [L10M] as the variant, how does the protein stability index read?
The protein stability index was 2.08.

With FTSGFNAAAQDYEADGSTNNGIFQ [L10Q] as the variant, how does the protein stability index read?
The protein stability index was 2.14.

Which protein stability index does the source give for FTSGFNAAAHDYEADGSTNNGIFQ [L10H] here?
The protein stability index was 2.32.

For FTSGFNAAASDYEADGSTNNGIFQ [L10S], which protein stability index is on record?
Its protein stability index is 1.53.

With FTSGFNAAAYDYEADGSTNNGIFQ [L10Y] as the variant, how does the protein stability index read?
Its protein stability index is 1.64.

With FTSGFNAAAPDYEADGSTNNGIFQ [L10P] as the variant, how does the protein stability index read?
Its protein stability index is 2.25.

For FTSGFNAAAADYEADGSTNNGIFQ [L10A], which protein stability index is on record?
The protein stability index was 1.62.

With FTSGFNAAADDYEADGSTNNGIFQ [L10D] as the variant, how does the protein stability index read?
The protein stability index was 2.47.

With FTSGFNAAAEDYEADGSTNNGIFQ [L10E] as the variant, how does the protein stability index read?
The protein stability index was 3.02.

For FTSGFNAAAKDYEADGSTNNGIFQ [L10K], which protein stability index is on record?
The protein stability index was 1.99.

Which protein stability index does the source give for FTSGFNAAAIDYEADGSTNNGIFQ [L10I] here?
The protein stability index was 1.98.

Which protein stability index does the source give for FTSGFNAAANDYEADGSTNNGIFQ [L10N] here?
Its protein stability index is 2.08.

For FTSGFNAAACDYEADGSTNNGIFQ [L10C], which protein stability index is on record?
The protein stability index was 1.92.

Which protein stability index does the source give for FTSGFNAAATDYEADGSTNNGIFQ [L10T] here?
Its protein stability index is 2.01.

For FTSGFNAAAVDYEADGSTNNGIFQ [L10V], which protein stability index is on record?
The protein stability index was 2.33.

With FTSGFNAAAWDYEADGSTNNGIFQ [L10W] as the variant, how does the protein stability index read?
The protein stability index was 1.95.

With FTSGFNAAAFDYEADGSTNNGIFQ [L10F] as the variant, how does the protein stability index read?
Its protein stability index is 2.3.

With FTSGFNAAALDYYADGSTNNGIFQ [E13Y] as the variant, how does the protein stability index read?
The protein stability index was 1.61.

For FTSGFNAAALDYSADGSTNNGIFQ [E13S], which protein stability index is on record?
The protein stability index was 1.78.

Which protein stability index does the source give for FTSGFNAAALDYWADGSTNNGIFQ [E13W] here?
Its protein stability index is 3.11.

With FTSGFNAAALDYQADGSTNNGIFQ [E13Q] as the variant, how does the protein stability index read?
The protein stability index was 1.56.

Which protein stability index does the source give for FTSGFNAAALDYLADGSTNNGIFQ [E13L] here?
Its protein stability index is 1.72.

With FTSGFNAAALDYRADGSTNNGIFQ [E13R] as the variant, how does the protein stability index read?
Its protein stability index is 1.66.

With FTSGFNAAALDYDADGSTNNGIFQ [E13D] as the variant, how does the protein stability index read?
The protein stability index was 2.32.

With FTSGFNAAALDYIADGSTNNGIFQ [E13I] as the variant, how does the protein stability index read?
The protein stability index was 1.36.

For FTSGFNAAALDYMADGSTNNGIFQ [E13M], which protein stability index is on record?
Its protein stability index is 1.82.

With FTSGFNAAALDYPADGSTNNGIFQ [E13P] as the variant, how does the protein stability index read?
Its protein stability index is 1.55.

With FTSGFNAAALDYHADGSTNNGIFQ [E13H] as the variant, how does the protein stability index read?
Its protein stability index is 2.24.

With FTSGFNAAALDYAADGSTNNGIFQ [E13A] as the variant, how does the protein stability index read?
The protein stability index was 1.76.

With FTSGFNAAALDYTADGSTNNGIFQ [E13T] as the variant, how does the protein stability index read?
The protein stability index was 2.21.

Which protein stability index does the source give for FTSGFNAAALDYVADGSTNNGIFQ [E13V] here?
Its protein stability index is 2.08.

For FTSGFNAAALDYNADGSTNNGIFQ [E13N], which protein stability index is on record?
The protein stability index was 2.09.

For FTSGFNAAALDYFADGSTNNGIFQ [E13F], which protein stability index is on record?
Its protein stability index is 2.46.

With FTSGFNAAALDYKADGSTNNGIFQ [E13K] as the variant, how does the protein stability index read?
The protein stability index was 2.08.

With FTSGFNAAALDYGADGSTNNGIFQ [E13G] as the variant, how does the protein stability index read?
Its protein stability index is 1.44.

For FTSGFNAAALDYCADGSTNNGIFQ [E13C], which protein stability index is on record?
Its protein stability index is 1.87.

For FTSGFNAAALDYEHDGSTNNGIFQ [A14H], which protein stability index is on record?
Its protein stability index is 2.09.

With FTSGFNAAALDYEPDGSTNNGIFQ [A14P] as the variant, how does the protein stability index read?
The protein stability index was 2.

Which protein stability index does the source give for FTSGFNAAALDYEDDGSTNNGIFQ [A14D] here?
Its protein stability index is 2.13.

For FTSGFNAAALDYEQDGSTNNGIFQ [A14Q], which protein stability index is on record?
Its protein stability index is 2.1.

Which protein stability index does the source give for FTSGFNAAALDYEFDGSTNNGIFQ [A14F] here?
Its protein stability index is 2.11.

For FTSGFNAAALDYEWDGSTNNGIFQ [A14W], which protein stability index is on record?
Its protein stability index is 1.94.

With FTSGFNAAALDYESDGSTNNGIFQ [A14S] as the variant, how does the protein stability index read?
Its protein stability index is 1.95.

Which protein stability index does the source give for FTSGFNAAALDYERDGSTNNGIFQ [A14R] here?
Its protein stability index is 2.27.

Which protein stability index does the source give for FTSGFNAAALDYELDGSTNNGIFQ [A14L] here?
The protein stability index was 1.8.

For FTSGFNAAALDYEMDGSTNNGIFQ [A14M], which protein stability index is on record?
The protein stability index was 2.02.

With FTSGFNAAALDYEYDGSTNNGIFQ [A14Y] as the variant, how does the protein stability index read?
The protein stability index was 2.09.

With FTSGFNAAALDYETDGSTNNGIFQ [A14T] as the variant, how does the protein stability index read?
Its protein stability index is 1.96.

With FTSGFNAAALDYENDGSTNNGIFQ [A14N] as the variant, how does the protein stability index read?
Its protein stability index is 1.72.

Which protein stability index does the source give for FTSGFNAAALDYEKDGSTNNGIFQ [A14K] here?
Its protein stability index is 2.5.

For FTSGFNAAALDYEGDGSTNNGIFQ [A14G], which protein stability index is on record?
Its protein stability index is 1.76.

Which protein stability index does the source give for FTSGFNAAALDYECDGSTNNGIFQ [A14C] here?
The protein stability index was 2.37.

With FTSGFNAAALDYEEDGSTNNGIFQ [A14E] as the variant, how does the protein stability index read?
The protein stability index was 2.14.

Which protein stability index does the source give for FTSGFNAAALDYEVDGSTNNGIFQ [A14V] here?
Its protein stability index is 2.17.

Which protein stability index does the source give for FTSGFNAAALDYEIDGSTNNGIFQ [A14I] here?
The protein stability index was 2.05.

With FTSGFNAAPLDYEADGSTNNGIFQ [A9P] as the variant, how does the protein stability index read?
The protein stability index was 1.86.

Which protein stability index does the source give for FTSGFNAAFLDYEADGSTNNGIFQ [A9F] here?
The protein stability index was 2.92.

Which protein stability index does the source give for FTSGFNAAQLDYEADGSTNNGIFQ [A9Q] here?
Its protein stability index is 2.97.

Which protein stability index does the source give for FTSGFNAALLDYEADGSTNNGIFQ [A9L] here?
Its protein stability index is 1.78.

For FTSGFNAATLDYEADGSTNNGIFQ [A9T], which protein stability index is on record?
Its protein stability index is 1.69.

Which protein stability index does the source give for FTSGFNAAWLDYEADGSTNNGIFQ [A9W] here?
Its protein stability index is 2.5.

Which protein stability index does the source give for FTSGFNAAHLDYEADGSTNNGIFQ [A9H] here?
The protein stability index was 2.18.

For FTSGFNAADLDYEADGSTNNGIFQ [A9D], which protein stability index is on record?
The protein stability index was 2.42.

Which protein stability index does the source give for FTSGFNAACLDYEADGSTNNGIFQ [A9C] here?
The protein stability index was 1.83.

Which protein stability index does the source give for FTSGFNAAELDYEADGSTNNGIFQ [A9E] here?
Its protein stability index is 2.46.

For FTSGFNAARLDYEADGSTNNGIFQ [A9R], which protein stability index is on record?
Its protein stability index is 1.99.

With FTSGFNAAKLDYEADGSTNNGIFQ [A9K] as the variant, how does the protein stability index read?
Its protein stability index is 1.62.

For FTSGFNAASLDYEADGSTNNGIFQ [A9S], which protein stability index is on record?
The protein stability index was 2.5.

With FTSGFNAAGLDYEADGSTNNGIFQ [A9G] as the variant, how does the protein stability index read?
The protein stability index was 2.06.

For FTSGFNAAILDYEADGSTNNGIFQ [A9I], which protein stability index is on record?
Its protein stability index is 2.44.

Which protein stability index does the source give for FTSGFNAAVLDYEADGSTNNGIFQ [A9V] here?
The protein stability index was 1.91.

Which protein stability index does the source give for FTSGFNAAYLDYEADGSTNNGIFQ [A9Y] here?
The protein stability index was 2.03.

With FTSGFNAANLDYEADGSTNNGIFQ [A9N] as the variant, how does the protein stability index read?
The protein stability index was 1.82.

With FTSGFNAAMLDYEADGSTNNGIFQ [A9M] as the variant, how does the protein stability index read?
Its protein stability index is 2.08.

For FTSGFNAYALDYEADGSTNNGIFQ [A8Y], which protein stability index is on record?
Its protein stability index is 1.89.

With FTSGFNAWALDYEADGSTNNGIFQ [A8W] as the variant, how does the protein stability index read?
The protein stability index was 2.61.

For FTSGFNAAALFYEADGSTNNGIFQ [D11F], which protein stability index is on record?
Its protein stability index is 3.1.
